Values quoted from earlier work in publication PMC11178655, “Dosimetry and pharmacokinetics of [^177Lu]Lu-satoreotide tetraxetan in patients with progressive neuroendocrine tumours” (European Journal of Nuclear Medicine and Molecular Imaging, 2024).

How the values were obtained:
patients with NETs = conditions: human, in vivo; cited from earlier work
Text: In the present study, we observed tumour ADCs of 5.0 Gy/GBq after cycle 1 and 4.0 Gy/GBq after cycle 3. These tumour ADCs are consistent with previously reported findings from a direct comparison of [^177Lu]Lu-satoreotide tetraxetan and [^177Lu]Lu-DOTA-TATE in the same tumours and patients in a cross-over design, which reported median tumour dose of [^177Lu]Lu-satoreotide tetraxetan of 7.0 Gy/GBq (range: 4.2–29 Gy/GBq), 3.5 times greater than the median tumour dose of [^177Lu]Lu-DOTA-TATE [22]. However, it should be noted that median tumour dose in this pilot study was calculated from a limi ... || The median ADC of [^177Lu]Lu-satoreotide tetraxetan for the bone marrow using a blood-based approach was lower than reported in other [^177Lu]Lu-satoreotide tetraxetan studies. The result is, however, similar to the mean blood-based radiation ADCs for the bone marrow reported for [^177Lu]Lu-DOTA-TATE [32].

[1] = in vivo; cited from earlier work
Text: In addition, consistent with their specific binding to SSTR, both [^177Lu]Lu-satoreotide tetraxetan and [^177Lu]Lu-DOTA-TATE predominantly show uptake in tumours, followed by the kidneys, spleen, and liver.

Substance: [^177Lu]Lu-DOTA-TATE
- Blood-based bone marrow ADC (patients with NETs): ≤ 0.02 Gy/GBq
- Image-based bone marrow ADC (patients with NETs): up to 0.06 Gy/GBq
- Median absorbed dose to the tumour (patients with NETs): 4.6 Gy/GBq
- Mean terminal blood half-life [1]: 72 h
